These results are taken from patent US20070128627A1 (US Dept. of Health and Human Services, published 2007).

For one assay, the target named is T1, VP16/GR (UniProt P06536 1-795).
T1 construct: Assayed with and without 1 µM Dex
T1 sequence: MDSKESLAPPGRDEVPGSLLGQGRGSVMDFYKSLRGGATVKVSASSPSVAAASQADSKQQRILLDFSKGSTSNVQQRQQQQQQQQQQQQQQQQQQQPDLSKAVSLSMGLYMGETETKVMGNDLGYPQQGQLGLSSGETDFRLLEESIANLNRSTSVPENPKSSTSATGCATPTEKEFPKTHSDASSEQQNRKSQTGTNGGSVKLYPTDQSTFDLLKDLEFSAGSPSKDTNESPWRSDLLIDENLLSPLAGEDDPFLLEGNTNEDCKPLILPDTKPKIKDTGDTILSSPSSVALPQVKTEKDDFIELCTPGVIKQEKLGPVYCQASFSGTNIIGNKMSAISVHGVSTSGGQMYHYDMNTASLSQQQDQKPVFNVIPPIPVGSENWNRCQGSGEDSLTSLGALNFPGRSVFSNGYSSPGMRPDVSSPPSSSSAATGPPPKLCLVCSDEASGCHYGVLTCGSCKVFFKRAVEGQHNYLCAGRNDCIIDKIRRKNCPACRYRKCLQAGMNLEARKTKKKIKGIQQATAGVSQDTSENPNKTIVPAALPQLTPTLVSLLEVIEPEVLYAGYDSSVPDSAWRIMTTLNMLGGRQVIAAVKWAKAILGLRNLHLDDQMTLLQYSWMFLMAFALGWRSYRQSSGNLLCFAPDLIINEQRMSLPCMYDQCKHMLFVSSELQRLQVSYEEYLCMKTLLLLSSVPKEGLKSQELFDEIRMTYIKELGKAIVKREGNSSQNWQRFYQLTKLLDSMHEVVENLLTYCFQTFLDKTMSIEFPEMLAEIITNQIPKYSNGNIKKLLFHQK
Description: mammalian two-hybrid ±1 µM Dex (FIG. 6B).

In the next assay the target is T2, VP16/TIF2.4 (human, UniProt Q15596 624-1010).
T2 construct: Only the TIF2.4 fragment is present; The text gives no limits for it, so the whole TIF2 entry is named
T2 sequence: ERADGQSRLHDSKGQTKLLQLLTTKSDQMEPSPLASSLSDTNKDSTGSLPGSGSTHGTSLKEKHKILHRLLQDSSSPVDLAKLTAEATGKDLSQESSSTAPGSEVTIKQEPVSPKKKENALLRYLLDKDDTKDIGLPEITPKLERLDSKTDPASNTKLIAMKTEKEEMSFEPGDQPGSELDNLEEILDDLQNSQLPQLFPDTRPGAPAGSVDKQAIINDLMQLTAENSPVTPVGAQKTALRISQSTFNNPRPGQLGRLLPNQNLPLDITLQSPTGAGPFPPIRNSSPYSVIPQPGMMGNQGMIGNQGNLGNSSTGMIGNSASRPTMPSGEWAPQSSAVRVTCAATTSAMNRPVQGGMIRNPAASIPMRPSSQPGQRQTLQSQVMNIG
Description: mammalian two-hybrid in CV-1 cells, relative luciferase activity (FIG. 6A).

Description for VP16/TIF2.4: Triplicate samples of CV-1 cells were transiently transfected with VP16 or VP16/TIF2.4 in FIG. 6A experiments. […] After determining the relative luciferase activities as described in FIG. 2B and 2C, the average values±S.E.M. from 2-5 experiments were plotted.

B1: GAL/STAMP(623-834) (other)
chain: MKLLSSIEQACDICRLKKLKCSKEKPKCAKCLKNNWECRYSPKTKRSPLTRAHLTEVESRLERLEQLFLLIFPREDLDMILKMDSLQDIKALLTGLFVQDNVNKDAVTDRLASVETDMPLTLRQHRISATSSSEESSNKGQRQLTVSENTPKENSMKVREWNNKGGHCCKLETQELEPKFNLMQILQDNGNLSKMQARIAFSAYLQHVQIRLMKDSGGQTFSASWAAKEDEQMELVVRFLKRASNNLQHSLRMVLPSRRLALLERRRILAHQLGDFIIVYNKETEQMAEKKSKKKVEEEEEDGVNMENFQEFIRQASEAELEEVLTFYTQKNKSASVFLGTHSKISKNNNNYSDSGAKG
notes: domain: GAL-DBD; Expressed in CV-1 cells for the mammalian two-hybrid assay; also called Gal/6-6CL1
For B1, the binding result with VP16/GR is “no binding”. The “average fold increase above the VP16 control” value with VP16/TIF2.4 worked out at 11 fold.
